In publication doi:10.1101/2024.12.17.628833 (bioRxiv, 2024):

B1: AtGORK^623 (residues 1 to 623) (domain or fragment, Arabidopsis thaliana, UniProt Q94A76 1-623, looked up)
chain: MGRLRRRQEIIDHEEEESNDDVSSRRGKLSLAETFRWLDSSEHRRIETDGHNDYKYIIHPKNRWYKAWEMFILVWAIYSSLFTPMEFGFFRGLPERLFVLDIVGQIAFLVDIVLQFFVAYRDTQTYRTVYKPTRIAFRYLKSHFLMDFIGCFPWDLIYKASGKHELVRYLLWIRLFRVRKVVEFFQRLEKDTRINYLFTRILKLLFVEVYCTHTAACIFYYLATTLPPENEGYTWIGSLKLGDYSYENFREIDLWKRYTTALYFAIVTMATVGYGDIHAVNLREMIFVMIYVSFDMVLGAYLIGNITALIVKGSNTERFRDKMNDLISFMNRKKLGRDLRSQITGHVRLQYDSHYTDTVMLQDIPASIRAKIAQLLYLPYIKKVPLFKGCSTEFINQIVIRLHEEYFLPGEVITEQGNVVDHLYFVCEGLLEALVTKTDGSEESVTLLGPHTSFGDISIICNISQPFTVRVCELCHLLRLDKQSFSNILEIYFHDGRTILNNIMEEKESNDRIKKLESDIVIHIGKQEAELALKVNSAAFQGDFYQLKSLIRSGADPNKTDYDGRSPLHLAACRGYEDITLFLIQEGVDVNLKDKFGHTPLFEAVKAGQEGVIGLLVKEGASF
B2: full-length Arabidopsis GORK (AtGORK^FL, residues 1 to 820) (natural protein, Arabidopsis thaliana, UniProt Q94A76 1-820, looked up)
chain: MGRLRRRQEIIDHEEEESNDDVSSRRGKLSLAETFRWLDSSEHRRIETDGHNDYKYIIHPKNRWYKAWEMFILVWAIYSSLFTPMEFGFFRGLPERLFVLDIVGQIAFLVDIVLQFFVAYRDTQTYRTVYKPTRIAFRYLKSHFLMDFIGCFPWDLIYKASGKHELVRYLLWIRLFRVRKVVEFFQRLEKDTRINYLFTRILKLLFVEVYCTHTAACIFYYLATTLPPENEGYTWIGSLKLGDYSYENFREIDLWKRYTTALYFAIVTMATVGYGDIHAVNLREMIFVMIYVSFDMVLGAYLIGNITALIVKGSNTERFRDKMNDLISFMNRKKLGRDLRSQITGHVRLQYDSHYTDTVMLQDIPASIRAKIAQLLYLPYIKKVPLFKGCSTEFINQIVIRLHEEYFLPGEVITEQGNVVDHLYFVCEGLLEALVTKTDGSEESVTLLGPHTSFGDISIICNISQPFTVRVCELCHLLRLDKQSFSNILEIYFHDGRTILNNIMEEKESNDRIKKLESDIVIHIGKQEAELALKVNSAAFQGDFYQLKSLIRSGADPNKTDYDGRSPLHLAACRGYEDITLFLIQEGVDVNLKDKFGHTPLFEAVKAGQEGVIGLLVKEGASFNLEDSGNFLCTTVAKGDSDFLKRLLSSGMNPNSEDYDHRTPLHVAASEGLFLMAKMLVEAGASVISKDRWGNSPLDEARLCGNKKLIKLLEDVKNAQSSIYPSSLRELQEERIERRKCTVFPFHPQEAKEERSRKHGVVVWIPSNLEKLIVTAAKELGLSDGASFVLLSEDQGRITDIDMISDGHKLYMISDTTDQT
B3: AtGORK^510 (residues 1 to 510) (domain or fragment, Arabidopsis thaliana, UniProt Q94A76 1-510, looked up)
chain: MGRLRRRQEIIDHEEEESNDDVSSRRGKLSLAETFRWLDSSEHRRIETDGHNDYKYIIHPKNRWYKAWEMFILVWAIYSSLFTPMEFGFFRGLPERLFVLDIVGQIAFLVDIVLQFFVAYRDTQTYRTVYKPTRIAFRYLKSHFLMDFIGCFPWDLIYKASGKHELVRYLLWIRLFRVRKVVEFFQRLEKDTRINYLFTRILKLLFVEVYCTHTAACIFYYLATTLPPENEGYTWIGSLKLGDYSYENFREIDLWKRYTTALYFAIVTMATVGYGDIHAVNLREMIFVMIYVSFDMVLGAYLIGNITALIVKGSNTERFRDKMNDLISFMNRKKLGRDLRSQITGHVRLQYDSHYTDTVMLQDIPASIRAKIAQLLYLPYIKKVPLFKGCSTEFINQIVIRLHEEYFLPGEVITEQGNVVDHLYFVCEGLLEALVTKTDGSEESVTLLGPHTSFGDISIICNISQPFTVRVCELCHLLRLDKQSFSNILEIYFHDGRTILNNIMEEKESN

Biological target: the molecule itself
Assay: cryo-EM structure

Stoichiometry N, 4:
B1
B2
B3
